Measured values reported in patent EP3083697B1.

Legend:
[1] = target: ENO1 deletion mutant Δ1-297 (human) (UniProt P06733); experiment: ELISA, mutant protein coated, 10 microgram EN10 mAb
[2] = target: ENO1 deletion mutant Δ1-189 (human) (UniProt P06733); experiment: as above

OD405 [1]: 1.56 OD405
percent of the OD405 of wild type ENO1 [1]: 39%
OD405 [2]: 1.43 OD405
percent of the OD405 of wild type ENO1 [2]: 42%
B1: EN10 mAb (antibody, V domains shown)
VH: EVQLQQSGPELVKPGASVKMSCKASGYTFTSCVMNWVKQKPGQGLEWIGYINPYNDGTKYNEKFKGKATLTSDKSSSTAYMELSSLTSEDSAVYYCAREGFYYGNFDNWGQGTTLTVSS
VL: DIQMTQSPASLSASVGETVTITCRASENIYSYLTWYQQKQGKSPQLLVYNAKTLPEGVPSRFSGSGSGTQFSLKINSLQPEDFGSYYCQHHYGTPYTFGGGTKLEITR
